{"source": "paper PMC7272049", "about": "(2020)", "test_in_all_cases": "FACS", "key": {"mPD-L1 D49R mCherry": {"biological_target": "mPD-L1 D49R mCherry (mouse, UniProt Q9EP73 19-290, D49R)", "sequence (Q9EP73 19-290 D49R)": "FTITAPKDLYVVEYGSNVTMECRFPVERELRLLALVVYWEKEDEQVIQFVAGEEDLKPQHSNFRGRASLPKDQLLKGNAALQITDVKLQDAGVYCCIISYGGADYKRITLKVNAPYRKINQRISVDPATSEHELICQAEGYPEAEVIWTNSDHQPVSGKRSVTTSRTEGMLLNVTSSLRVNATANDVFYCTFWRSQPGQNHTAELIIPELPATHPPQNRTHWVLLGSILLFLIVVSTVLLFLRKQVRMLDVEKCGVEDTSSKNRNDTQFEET"}, "WT mPD-L1 mCherry": {"biological_target": "WT mPD-L1 mCherry (mouse, UniProt Q9EP73 19-290)", "sequence (Q9EP73 19-290)": "as the sequence (Q9EP73 19-290 D49R) above, with R31D counted along it"}, "mPD-L1 Y56A mCherry": {"biological_target": "mPD-L1 Y56A mCherry (mouse, UniProt Q9EP73 19-290, Y56A)", "sequence (Q9EP73 19-290 Y56A)": "as the sequence (Q9EP73 19-290 D49R) above, with R31D, Y38A counted along it"}, "mPD-L1 K124A mCherry": {"biological_target": "mPD-L1 K124A mCherry (mouse, UniProt Q9EP73 19-290, K124A)", "sequence (Q9EP73 19-290 K124A)": "as the sequence (Q9EP73 19-290 D49R) above, with R31D, K106A counted along it"}, "mPD-L1 G120D mCherry": {"biological_target": "mPD-L1 G120D mCherry (mouse, UniProt Q9EP73 19-290, G120D)", "sequence (Q9EP73 19-290 G120D)": "as the sequence (Q9EP73 19-290 D49R) above, with R31D, G102D counted along it"}, "mPD-L1 G119D mCherry": {"biological_target": "mPD-L1 G119D mCherry (mouse, UniProt Q9EP73 19-290, G119D)", "sequence (Q9EP73 19-290 G119D)": "as the sequence (Q9EP73 19-290 D49R) above, with R31D, G101D counted along it"}, "mPD-L1 R125A mCherry": {"biological_target": "mPD-L1 R125A mCherry (mouse, UniProt Q9EP73 19-290, R125A)", "sequence (Q9EP73 19-290 R125A)": "as the sequence (Q9EP73 19-290 D49R) above, with R31D, R107A counted along it"}, "mPD-L1 D122A mCherry": {"biological_target": "mPD-L1 D122A mCherry (mouse, UniProt Q9EP73 19-290, D122A)", "sequence (Q9EP73 19-290 D122A)": "as the sequence (Q9EP73 19-290 D49R) above, with R31D, D104A counted along it"}, "mPD-L1 Y123R mCherry": {"biological_target": "mPD-L1 Y123R mCherry (mouse, UniProt Q9EP73 19-290, Y123R)", "sequence (Q9EP73 19-290 Y123R)": "as the sequence (Q9EP73 19-290 D49R) above, with R31D, Y105R counted along it"}, "D28R": {"biological_target": "D28R (Mus musculus)", "sequence (chain, as listed by the source D28R)": "as the sequence (Q9EP73 19-290 D49R) above, with D8R, R31D counted along it"}}, "data": [{"binder": "mPD-1 mIgG2a (Fc fusion) LEVPNGPWRSLTFYPAWLTVSEGANATFTCSLSNWSEDLMLNWNRLSPSNQTEKQAAFCNGLSQPVQDARFQIIQLPNRHDFHMNILDTRRNDSGIYLCGAISLHPKAKIEESPGAELVVTERILETSTRYPSPSPKPEGRFQGM", "values": [{"measurement": "EC50", "setting": "mPD-L1 D49R mCherry", "result": 1.8, "unit": "nM"}, {"measurement": "EC50", "setting": "WT mPD-L1 mCherry", "result": 1.8, "unit": "nM"}, {"measurement": "EC50", "setting": "mPD-L1 Y56A mCherry", "result": 1.9, "unit": "nM"}, {"measurement": "EC50", "setting": "mPD-L1 K124A mCherry", "result": 42.9, "unit": "nM"}, {"measurement": "EC50", "setting": "mPD-L1 G120D mCherry", "result": 2.5, "unit": "nM"}, {"measurement": "EC50", "setting": "mPD-L1 G119D mCherry", "result": 2, "unit": "nM"}, {"measurement": "EC50", "setting": "mPD-L1 R125A mCherry", "result": 38.8, "unit": "nM"}]}, {"binder": "mB7-1 mIgG2a (Fc fusion) VDEQLSKSVKDKVLLPCRYNSPHEDESEDRIYWQKHDKVVLSVIAGKLKVWPEYKNRTLYDNTTYSLIILGLVLSDRGTYSCVVQKKERGTYEVKHLALVKLSIKADFSTPNITESGNPSADTKRITCFASGGFPKPRFSWLENGRELPGINTTISQDPESELYTISSQLDFNTTRNHTIKCLIKYGDAHVSEDFTWEKPPEDPPDSKN", "values": [{"measurement": "EC50", "setting": "mPD-L1 D122A mCherry", "result": 68.2, "unit": "nM"}, {"measurement": "EC50", "setting": "mPD-L1 K124A mCherry", "result": 54.9, "unit": "nM"}, {"measurement": "EC50", "setting": "mPD-L1 Y123R mCherry", "result": 7.7, "unit": "nM"}, {"measurement": "EC50", "setting": "mPD-L1 R125A mCherry", "result": 20.2, "unit": "nM"}]}, {"binder": "mPD-1 mIgG2a (Fc fusion, Cell-surface full-length mPD-L1 with a C-terminal mCherry (left out); limits are not given, so the mature chain 19-290 is used. The paper prints D28R, but residue 28 of Q9EP73 is Tyr. The only nearby Asp is D26, which lies at the PD-1 interface, so D28R is read as D26R. The paper's other PD-L1 numbers match the precursor numbering.) LEVPNGPWRSLTFYPAWLTVSEGANATFTCSLSNWSEDLMLNWNRLSPSNQTEKQAAFCNGLSQPVQDARFQIIQLPNRHDFHMNILDTRRNDSGIYLCGAISLHPKAKIEESPGAELVVTERILETSTRYPSPSPKPEGRFQGM", "values": [{"measurement": "EC50", "setting": "D28R", "result": 2.6, "unit": "nM"}]}, {"binder": "mB7-1 mIgG2a (Fc fusion, Cell-surface full-length mPD-L1 with a C-terminal mCherry (left out); limits are not given, so the mature chain 19-290 is used. The paper prints D28R, but residue 28 of Q9EP73 is Tyr. The only nearby Asp is D26, which lies at the PD-1 interface, so D28R is read as D26R. The paper's other PD-L1 numbers match the precursor numbering.) VDEQLSKSVKDKVLLPCRYNSPHEDESEDRIYWQKHDKVVLSVIAGKLKVWPEYKNRTLYDNTTYSLIILGLVLSDRGTYSCVVQKKERGTYEVKHLALVKLSIKADFSTPNITESGNPSADTKRITCFASGGFPKPRFSWLENGRELPGINTTISQDPESELYTISSQLDFNTTRNHTIKCLIKYGDAHVSEDFTWEKPPEDPPDSKN", "values": [{"measurement": "EC50", "setting": "D28R", "result": 18.8, "unit": "nM"}]}]}
